# B1: Papaver somniferum (R,S)-reticuline 7-O-methyltransferase (PSOMT1), recombinant, His-tagged subunit (enzyme)
# chain: MDTAEERLKGQAEIWEHMFAFVDSMALKCAVELGIPDIINSHGRPVTISEIVDSLKTNTPSSSPNIDYLTRIMRLLVHKRLFTSELHQESNQLLYNLTRSSKWLLKDSKFNLSPLVLWETNPILLKPWQYLGKCAQEKSSPFERAHGCEIWDLALADPKFNNFLNGAMQCSTTTIINEMLLEYKDGFSGIAGSLVDVGGGTGSIIAEIVKAHPHIQGINFDLPHVVATAAEFPGVKHVGGDMFVDIPEADAVIMKWILHDWSDEDCTIILKNCYRAIRKKKNGKVIIVDCVLRPDGNDLFDKMGLIFDVLMMAHTTAGKERTEAEWKILLNNAGFPRYNVIRTPAFPCIIEAFPE
# notes: Full-length open reading frame expressed in Sf9 cells with an N-terminal His tag and purified on cobalt resin; GenBank AY268893 is printed for it; also called Pso7OMT; Ps7OMT; not shown: six histidine residues elongating the amino terminus (pFastBac HTa vector)
# B2: Papaver somniferum (R,S)-norcoclaurine 6-O-methyltransferase (PSOMT2), recombinant, His-tagged subunit (enzyme)
# chain: METVSKIDQQNQAKIWKQIYGFAESLVLKCAVQLEIAETLHNNVKPMSLSELASKLPVAQPVNEDRLFRIMRYLVHMELFKIDATTQKYSLAPPAKYLLRGWEKSMVDSILCINDKDFLAPWHHLGDGLTGNCDAFEKALGKSIWVYMSVNPEKNQLFNAAMACDTRLVTSALANECKSIFSDGISTLVDVGGGTGTAVKAISKAFPDIKCTIYDLPHVIADSPEIPNITKISGDMFKSIPSADAIFMKCILHDWNDDECIQILKRCKEALPKGGKVIIVDVVIDMDSTHPYAKIRLTLDLDMMLNTGGKERTKEEWKTLFDAAGFASHKVTQISAVQSVIEAYPY
# notes: Full-length open reading frame expressed in Sf9 cells with an N-terminal His tag and purified on cobalt resin; GenBank AY268894 is printed for it; also called Pso6OMT; Ps6OMT; not shown: six histidine residues elongating the amino terminus (pFastBac HTa vector)
# Target: the molecule itself
# Test: gel filtration on a calibrated Sephacryl 200 column; self-association of the subunit (43 kDa by SDS-PAGE) into a homodimer
# Text: Purification and Functional Characterization of Recombinant Enzymes—The PSOMT1 and PSOMT2 cDNAs were each constructed to express the recombinant proteins with six histidine residues elongating the amino terminus. The proteins were then purified from S. frugiperda Sf9 cell culture medium in one step by cobalt affinity chromatography to yield electrophoretically homogeneous proteins. PSOMT1 and PSOMT2 each have relative molecular masses of 43 kDa as determined by SDS-PAGE. This compares with the calculated molecular masses of 39,841 and 38,510 based on the translation of the nucleotide sequences. The native relative molecular masses were determined by gel filtration on a calibrated Sephacryl 200 column (Pharmacia). PSOMT1 and PSOMT2 are each homodimers with an Mr of 85 and 80 kDa, respectively. This is consistent with that observed for norcoclaurine 6-O-methyltransferases of (S)-reticuline biosynthesis in T. tuberosum (4).
protein,measurement,value
B1,binding result,binds
B2,binding result,binds
